The experiment concerns the target biotinylated NeoNectin candidate 1 (NN-C1) (biotin (N-terminal biotin; enzymatic biotinylation of the Avi-tag)). Kind of experiment: BLI.

B1: integrin αvβ8 ectodomain (complex)
chain 1: FNLDVDSPAEYSGPEGSYFGFAVDFFVPSASSRMFLLVGAPKANTTQPGIVEGGQVLKCDWSSTRRCQPIEFDATGNRDYAKDDPLEFKSHQWFGASVRSKQDKILACAPLYHWRTEMKQEREPVGTCFLQDGTKTVEYAPCRSQDIDADGQGFCQGGFSIDFTKADRVLLGGPGSFYWQGQLISDQVAEIVSKYDPNVYSIKYNNQLATRTAQAIFDDSYLGYSVAVGDFNGDGIDDFVSGVPRAARTLGMVYIYDGKNMSSLYNFTGEQMAAYFGFSVAATDINGDDYADVFIGAPLFMDRGSDGKLQEVGQVSVSLQRASGDFQTTKLNGFEVFARFGSAIAPLGDLDQDGFNDIAIAAPYGGEDKKGIVYIFNGRSTGLNAVPSQILEGQWAARSMPPSFGYSMKGATDIDKNGYPDLIVGAFGVDRAILYRARPVITVNAGLEVYPSILNQDNKTCSLPGTALKVSCFNVRFCLKADGKGVLPRKLNFQVELLLDKLKQKGAIRRALFLYSRSPSHSKNMTISRGGLMQCEELIAYLRDESEFRDKLTPITIFMEYRLDYRTAADTTGLQPILNQFTPANISRQAHILLDCGEDNVCKPKLEVSVDSDQKKIYIGDDNPLTLIVKAQNQGEGAYEAELIVSIPLQADFIGVVRNNEALARLSCAFKTENQTRQVVCDLGNPMKAGTQLLAGLRFSVHQQSEMDTSVKFDLQIQSSNLFDKVSPVVSHKVDLAVLAAVEIRGVSSPDHVFLPIPNWEHKENPETEEDVGPVVQHIYELRNNGPSSFSKAMLHLQWPYKYNNNTLLYILHYDIDGPMNCTSDMEINPLRIKISSLQTTEKNDTVAGQGERDHLITKRDLALSEGDIHTLGCGVAQCLKIVCQVGRLDRGKSAILYVKSLLWTETFMNKENQNHSYSLKSSASFNVIEFPYKNLPIEDITNSTLVTTNVTWGIQPAPMPV
chain 2: EDNRCASSNAASCARCLALGPECGWCVQEDFISGGSRSERCDIVSNLISKGCSVDSIEYPSVHVIIPTENEINTQVTPGEVSIQLRPGAEANFMLKVHPLKKYPVDLYYLVDVSASMHNNIEKLNSVGNDLSRKMAFFSRDFRLGFGSYVDKTVSPYISIHPERIHNQCSDYNLDCMPPHGYIHVLSLTENITEFEKAVHRQKISGNIDTPEGGFDAMLQAAVCESHIGWRKEAKRLLLVMTDQTSHLALDSKLAGIVVPNDGNCHLKNNVYVKSTTMEHPSLGQLSEKLIDNNINVIFAVQGKQFHWYKDLLPLLPGTIAGEIESKAANLNNLVVEAYQKLISEVKVQVENQVQGIYFNITAICPDGSRKPGMEGCRNVTSNDEVLFNVTVTMKKCDVTGGKNYAIIKPIGFNETAKIHIHRNCSCQCEDNRGPKGKCVDETFLDSKCFQCDENKCHFDEDQFSSESCKSHKDQPVCSGRGVCVCGKCSCHKIKLGKVYGKYCEKDDFSCPYHHGNLCAGHGECEAGRCQCFSGWEGDRCQCPSAAAQHCVNSKGQVCSGRGTCVCGRCECTDPRSIGRFCEHCPTCYTACKENWNCMQCLHPHNLSQAILDQCKTSCALMEQQHYVDQTSECFSSPSYLR
B1: binding was characterised by a dissociation constant (Kd) of 1 µM.
